16 variants from the supplement of paper PMC7125110 can be followed below.

First the molecules themselves.
B1: glmS ribozyme (parent)
chain: AUAAAAGCGCCAGAACUACAGAAAUGUAGUUGACGAGGAGGAGGUUUAUCGAAUUUUCGGCGGAUGCCUCCAAA

± gives the standard error. For part of these data: Fewer inactive variants are shown than the library holds.

Holding throughout (settings): with glucosamine-6-phosphate
In data set [1] the parent is B1. Put plainly: kcat; higher = faster cleavage; RNA array. The gist of the method: (§1)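 Weighted Michaelis–Menten fits across concentrations supplied kcat and KM, based on kobs from one- or two-exponential decay fits to normalised per-tile medians. The data came from barcoded ribozyme variants transcribed in situ by E. coli RNA polymerase on sequenced MiSeq chips and tracked at 37 °C by a hybridised Cy3 probe. Glucosamine-6-phosphate (40 μM to 10 mM) in HEPES/KCl/Mg(OAc)2 buffer was flowed in.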

Data set [2] covers variants of B1. Briefly: KM; higher = weaker cofactor use; RNA array. In outline:
as §1

The variants in data set [3] derive from B1. Briefly: self-cleavage kobs at 40 uM GlcN6P; higher = faster cleavage; RNA array. The gist of the method: as §1
Data set [4] covers variants of B1. Put plainly: self-cleavage kobs at 160 uM GlcN6P; higher = faster cleavage; RNA array. In outline:
as §1

The variants in data set [5] derive from B1. Put plainly: self-cleavage kobs at 640 uM GlcN6P; higher = faster cleavage; RNA array. In outline:
as §1

Variants of B1 are the subject of data set [6]. Put plainly: self-cleavage kobs at 2500 uM GlcN6P; higher = faster cleavage; RNA array. The gist of the method: as §1
Variants of B1 are the subject of data set [7]. Put plainly: self-cleavage kobs at 10000 uM GlcN6P; higher = faster cleavage; RNA array. In outline:
as §1

As a reminder, the kcat is the number of substrate molecules converted per active site and unit of time at saturation. The term KM denotes the concentration of substrate that gives half-maximal velocity. Turning to A15C A64G, in the data set with glucosamine-6-phosphate [1], the kcat amounted to 0.00792 ± 0.0013 s⁻¹. Further, the KM with glucosamine-6-phosphate [2] came out at 2980 ± 660 µM. The “self-cleavage kobs at 40 uM GlcN6P” value in the data set with glucosamine-6-phosphate [3] amounted to 0.000125 ± 1.6e-05 s⁻¹. In addition, the “self-cleavage kobs at 160 uM GlcN6P” value with glucosamine-6-phosphate [4] is 0.00037 ± 6.2e-05 s⁻¹. The “self-cleavage kobs at 640 uM GlcN6P” value in the data set with glucosamine-6-phosphate [5] is 0.00113 ± 0.00024 s⁻¹. In the data set with glucosamine-6-phosphate [6], the “self-cleavage kobs at 2500 uM GlcN6P” value is 0.00387 ± 0.00068 s⁻¹. In addition, the “self-cleavage kobs at 10000 uM GlcN6P” value with glucosamine-6-phosphate [7] was 0.00614 ± 0.00072 s⁻¹.
Turning to U54C C71A, the turnover number (kcat) in the data set with glucosamine-6-phosphate [1] was determined as 0.00379 ± 0.00088 s⁻¹. The KM with glucosamine-6-phosphate [2] amounted to 1580 ± 530 µM. For the same variant, the “self-cleavage kobs at 40 uM GlcN6P” value with glucosamine-6-phosphate [3] was found to be 0.000112 ± 1.4e-05 s⁻¹. In addition, in the data set with glucosamine-6-phosphate [4], the “self-cleavage kobs at 160 uM GlcN6P” value worked out at 0.000296 ± 4.1e-05 s⁻¹. In the data set with glucosamine-6-phosphate [5], the “self-cleavage kobs at 640 uM GlcN6P” value is 0.00133 ± 0.00019 s⁻¹. The “self-cleavage kobs at 2500 uM GlcN6P” value with glucosamine-6-phosphate [6] stood at 0.00192 ± 0.00026 s⁻¹. Also, the “self-cleavage kobs at 10000 uM GlcN6P” value with glucosamine-6-phosphate [7] turned out to be 0.0039 ± 0.00049 s⁻¹.
Take G41U U47G: the kcat in the data set with glucosamine-6-phosphate [1] was 0.00121 ± 0.0005 s⁻¹. Also, the “self-cleavage kobs at 40 uM GlcN6P” value with glucosamine-6-phosphate [3] worked out at 4.35e-05 ± 1.2e-05 s⁻¹. The “self-cleavage kobs at 160 uM GlcN6P” value in the data set with glucosamine-6-phosphate [4] is 3.94e-05 ± 1.2e-05 s⁻¹. Besides, the “self-cleavage kobs at 640 uM GlcN6P” value with glucosamine-6-phosphate [5] worked out at 0.000221 ± 4.5e-05 s⁻¹. Moreover, in the data set with glucosamine-6-phosphate [6], the “self-cleavage kobs at 2500 uM GlcN6P” value turned out to be 0.000364 ± 8.6e-05 s⁻¹. For the same variant, in the data set with glucosamine-6-phosphate [7], the “self-cleavage kobs at 10000 uM GlcN6P” value stood at 0.00093 ± 0.00013 s⁻¹.
For the variant C10G U49C, the kcat in the data set with glucosamine-6-phosphate [1] was < 1e-05 s⁻¹. The “self-cleavage kobs at 40 uM GlcN6P” value in the data set with glucosamine-6-phosphate [3] was < 1e-05 s⁻¹. Further, in the data set with glucosamine-6-phosphate [4], the “self-cleavage kobs at 160 uM GlcN6P” value was < 1e-05 s⁻¹. Further, in the data set with glucosamine-6-phosphate [6], the “self-cleavage kobs at 2500 uM GlcN6P” value was < 1e-05 s⁻¹. Moreover, the “self-cleavage kobs at 10000 uM GlcN6P” value in the data set with glucosamine-6-phosphate [7] was < 1e-05 s⁻¹.
For U56A C67A, the kcat with glucosamine-6-phosphate [1] was 0.00827 ± 0.0033 s⁻¹. Moreover, the KM in the data set with glucosamine-6-phosphate [2] was 3230 ± 1600 µM. Also, the “self-cleavage kobs at 40 uM GlcN6P” value with glucosamine-6-phosphate [3] stood at 0.000132 ± 1.3e-05 s⁻¹. For the same variant, in the data set with glucosamine-6-phosphate [4], the “self-cleavage kobs at 160 uM GlcN6P” value amounted to 0.000294 ± 4.8e-05 s⁻¹. Moreover, the “self-cleavage kobs at 640 uM GlcN6P” value in the data set with glucosamine-6-phosphate [5] came to 0.00132 ± 0.00016 s⁻¹. Further, in the data set with glucosamine-6-phosphate [6], the “self-cleavage kobs at 2500 uM GlcN6P” value amounted to 0.00323 ± 0.00075 s⁻¹. Further, in the data set with glucosamine-6-phosphate [7], the “self-cleavage kobs at 10000 uM GlcN6P” value stood at 0.00678 ± 0.0011 s⁻¹.
For the variant A53G A64U, the kcat with glucosamine-6-phosphate [1] was 0.000128 ± 1e-05 s⁻¹. The KM in the data set with glucosamine-6-phosphate [2] is 2590 ± 630 µM. Moreover, in the data set with glucosamine-6-phosphate [5], the “self-cleavage kobs at 640 uM GlcN6P” value amounted to 3.12e-05 ± 9.7e-06 s⁻¹. Moreover, the “self-cleavage kobs at 2500 uM GlcN6P” value with glucosamine-6-phosphate [6] is 5.65e-05 ± 1.1e-05 s⁻¹. Moreover, the “self-cleavage kobs at 10000 uM GlcN6P” value in the data set with glucosamine-6-phosphate [7] was 0.000103 ± 9.5e-06 s⁻¹.
Turning to C50A C61U C70U, the kcat with glucosamine-6-phosphate [1] came to 3.88e-05 ± 1.2e-05 s⁻¹.
For the variant A15C A33C, the kcat with glucosamine-6-phosphate [1] stood at 6.42e-05 ± 3.3e-06 s⁻¹. Also, the KM with glucosamine-6-phosphate [2] is 1900 ± 440 µM. Moreover, the “self-cleavage kobs at 2500 uM GlcN6P” value with glucosamine-6-phosphate [6] is 3.95e-05 ± 1.2e-05 s⁻¹. Further, the “self-cleavage kobs at 10000 uM GlcN6P” value in the data set with glucosamine-6-phosphate [7] came out at 5.37e-05 ± 6.3e-06 s⁻¹.
As to A15U U31G U47A, the kcat with glucosamine-6-phosphate [1] came out at 0.000799 ± 0.00019 s⁻¹. In addition, the KM with glucosamine-6-phosphate [2] was 5260 ± 2100 µM. Moreover, in the data set with glucosamine-6-phosphate [5], the “self-cleavage kobs at 640 uM GlcN6P” value was 0.000105 ± 2.5e-05 s⁻¹. For the same variant, the “self-cleavage kobs at 2500 uM GlcN6P” value with glucosamine-6-phosphate [6] was 0.000221 ± 5.7e-05 s⁻¹. In addition, the “self-cleavage kobs at 10000 uM GlcN6P” value in the data set with glucosamine-6-phosphate [7] is 0.000537 ± 8.1e-05 s⁻¹.
For the variant C8A C71G, the kcat in the data set with glucosamine-6-phosphate [1] is 1.09e-05 ± 3.7e-06 s⁻¹.
As to G38A U56A, the kcat with glucosamine-6-phosphate [1] was < 1e-05 s⁻¹. For the same variant, in the data set with glucosamine-6-phosphate [2], the KM came out at 52.5 ± 11 µM. The “self-cleavage kobs at 640 uM GlcN6P” value with glucosamine-6-phosphate [5] is < 1e-05 s⁻¹. The “self-cleavage kobs at 10000 uM GlcN6P” value with glucosamine-6-phosphate [7] was < 1e-05 s⁻¹.
Turning to G13A G29A, in the data set with glucosamine-6-phosphate [1], the kcat was 0.000248 ± 8.5e-06 s⁻¹. The KM in the data set with glucosamine-6-phosphate [2] was 4980 ± 320 µM. Also, the “self-cleavage kobs at 2500 uM GlcN6P” value with glucosamine-6-phosphate [6] is 8.32e-05 ± 1.2e-05 s⁻¹. Also, the “self-cleavage kobs at 10000 uM GlcN6P” value with glucosamine-6-phosphate [7] is 0.000165 ± 2.4e-05 s⁻¹.
G32U G63A: the kcat in the data set with glucosamine-6-phosphate [1] is < 1e-05 s⁻¹. Also, the “self-cleavage kobs at 640 uM GlcN6P” value with glucosamine-6-phosphate [5] is < 1e-05 s⁻¹. The “self-cleavage kobs at 2500 uM GlcN6P” value in the data set with glucosamine-6-phosphate [6] is < 1e-05 s⁻¹. The “self-cleavage kobs at 10000 uM GlcN6P” value in the data set with glucosamine-6-phosphate [7] is < 1e-05 s⁻¹.
For U47C U56G, in the data set with glucosamine-6-phosphate [1], the kcat was found to be 0.00245 ± 0.00054 s⁻¹. In addition, the Michaelis-Menten constant (KM) with glucosamine-6-phosphate [2] came out at 1580 ± 540 µM. The “self-cleavage kobs at 40 uM GlcN6P” value in the data set with glucosamine-6-phosphate [3] was determined as 7.97e-05 ± 1.3e-05 s⁻¹. In addition, the “self-cleavage kobs at 160 uM GlcN6P” value in the data set with glucosamine-6-phosphate [4] is 0.000196 ± 4e-05 s⁻¹. In addition, the “self-cleavage kobs at 640 uM GlcN6P” value in the data set with glucosamine-6-phosphate [5] was 0.000708 ± 8.7e-05 s⁻¹. In the data set with glucosamine-6-phosphate [6], the “self-cleavage kobs at 2500 uM GlcN6P” value came out at 0.00108 ± 0.00025 s⁻¹. The “self-cleavage kobs at 10000 uM GlcN6P” value with glucosamine-6-phosphate [7] came out at 0.00243 ± 0.0003 s⁻¹.
As for U47A G59A, the kcat with glucosamine-6-phosphate [1] amounted to 8.22e-05 ± 1.1e-05 s⁻¹. In the data set with glucosamine-6-phosphate [2], the KM amounted to 3740 ± 1100 µM. Further, the “self-cleavage kobs at 40 uM GlcN6P” value in the data set with glucosamine-6-phosphate [3] was < 1e-05 s⁻¹. Also, in the data set with glucosamine-6-phosphate [6], the “self-cleavage kobs at 2500 uM GlcN6P” value was 3.14e-05 ± 1.2e-05 s⁻¹. The “self-cleavage kobs at 10000 uM GlcN6P” value with glucosamine-6-phosphate [7] worked out at 6.07e-05 ± 1.8e-05 s⁻¹.
On to A6G C70A, for which, in the data set with glucosamine-6-phosphate [1], the catalytic constant (kcat) is < 1e-05 s⁻¹. Further, the “self-cleavage kobs at 40 uM GlcN6P” value with glucosamine-6-phosphate [3] was < 1e-05 s⁻¹. Further, the “self-cleavage kobs at 10000 uM GlcN6P” value in the data set with glucosamine-6-phosphate [7] is < 1e-05 s⁻¹.
